Data taken from article PMC4737141.

Target: Recombinant human Tipin-His6 (human) (UniProt Q9BVW5)
Test: SPR

Sequence of UniProt Q9BVW5 (Q9BVW5 whole entry): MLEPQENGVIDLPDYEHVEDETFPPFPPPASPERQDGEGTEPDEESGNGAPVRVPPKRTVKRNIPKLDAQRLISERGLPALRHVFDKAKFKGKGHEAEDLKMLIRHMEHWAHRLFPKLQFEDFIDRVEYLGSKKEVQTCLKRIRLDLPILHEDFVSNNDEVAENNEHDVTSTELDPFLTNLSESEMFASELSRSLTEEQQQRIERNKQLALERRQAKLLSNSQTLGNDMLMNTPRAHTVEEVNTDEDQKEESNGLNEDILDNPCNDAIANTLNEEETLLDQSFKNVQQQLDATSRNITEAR

“Recombinant human DDX11-3xFLAG (from UniProt Q96FC9 1-970) (enzyme)” showed a Kd of 0.655 µM.
